Assay results reported in the supplement of paper PMC9170038.

Test system: MS2 coat protein
Assay: apparent KD of MS2 coat protein; designed switch direction (-1 OFF switch, 1 ON switch): -1; higher = weaker reporter binding
Procedure, shortened: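 Transcription of designed RNA switches on Illumina chips was done by stalled E. coli RNA polymerase. SNAP-549-labelled MS2 coat protein was then titrated in doubling steps from 0.7 or 1.5 nM to 3 µM, with steps of 0.8–1.5 h at the lowest and 10–20 min at the highest concentration. The per-design median over clusters of curve-fitted normalised fluorescence is reported as apparent KD.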

[1] = Eterna round: R95, input ligand: FMN 200 uM
[2] = Eterna round: R95, input ligand: microRNA oligo, concentration not stated
[3] = Eterna round: R95, input ligand: none
[4] = input ligand: microRNA oligo, concentration not stated

| Sequence | apparent KD of MS2 coat protein (input ligand: FMN 200 uM) | apparent KD of MS2 coat protein (input ligand: none) | apparent KD of MS2 coat protein [1] | apparent KD of MS2 coat protein [2] | apparent KD of MS2 coat protein [3] | apparent KD of MS2 coat protein [4] |
| --- | --- | --- | --- | --- | --- | --- |
| AAAUCGGUAGAGGAUAUUGUACAGGAAACGGUGCGAGAAGGUUGCACAUGAGGAUCACCCAUGUUUAAUUGCGA [EX6 #49] (Eterna round: R97, puzzle: Exclusion 6) | 43.1 nM | 28.5 nM |  |  |  |  |
| UAGCUUCCGGUCAGGAUAUACGCUGGCGAAUAGCAGUAGAAGGGACAUGAGGAUCACCCAUGUGGGUUCAAAGA [Zabetima] (puzzle: Brourd's mod of Exclusion 4) |  |  | 91 nM | 39.4 nM | 44.2 nM |  |
| UAUGGUUAAGUCAGGAUAUGCUCAUAGAAGUCUAUGCAGAAGGGACAUGAGGAUCACCCAUGUAUGGUCGUGUU [Ex4 #65] (Eterna round: R97, puzzle: Brourd's mod of Exclusion 4) | 142 nM | 70.9 nM |  |  |  |  |
| GAGUGGUGAGGAUAUACAUGAGGAUCACCCAUGUGCUUCAGCUAGGAGACUAGCAUUGGUAGAAGGCAUUACUC [Mod of lroppy 8 - Jieux - Exclusion 3] (Eterna round: R97, puzzle: Exclusion 3) | 102 nM | 33.6 nM |  |  |  |  |
| UUUUUUGUUGUGAGGAUAUCGUUGUGGAUGUGGAUCGAGAAGGCACAUGAGGAUCACCCAUGUUUGUUGUGGUU [JR_BMOE4_Sub085] (puzzle: Brourd's mod of Exclusion 4) |  |  |  | 86.7 nM |  |  |
| CUGGUCCGAGGAUAUAUUAAGUGAUACAUGAGGAUCACCCAUGUUAUUUAAUGGAUGUAAAUAGAAGGCGGACUAG [Mat - Exclusion 5 - JL mod - D70] (puzzle: Exclusion 5) |  |  | 51 nM | 42.6 nM | 44.6 nM |  |
| CAGUACUGAGGAUAUACAUGAGGAUCACCCAUGUGAACCAGCUAGGAAACUAGCAAAAGUAGAAGGCAGUACUG [828 mod 2 m7] (Eterna round: R97, puzzle: Exclusion 3) | 2260 nM | 92.5 nM |  |  |  |  |
| UUUAUGCUAGGAUAUGCACCCUCGAACAUGAGGAUCACCCAUGUACAAUAAAAGCAUGGAGCAGAAGGAGCUCCCA [EX5 A.24] (Eterna round: R97, puzzle: Exclusion 5) | 378 nM | 80.1 nM |  |  |  |  |
| CCAUAUAACACAGGAUAUCAUCGCAACUGACGUUGAGAAGGGUGACAUGAGGAUCACCCAUGUGAUUUCUCAAUAUUAUACAUC [Prohibition 81 - Jieux - Exclusion NG 1] (Eterna round: R96, puzzle: Exclusion NG 1) | 1040 nM | 1110 nM |  |  |  | 661 nM |
| CAGUACUACAAGCUAAGGGACAUGAGGAUCACCCAUGUUCGUCUUAUUGAUCUAGGUACGCUGACGUACCUAGAUCU [JL-sv1-2.18 Brourd mod] (puzzle: Sensor v3, turn-off variant 1) |  |  | 13.6 nM | 20.8 nM | 13.8 nM |  |
| AGCGCCAUCGUGAGAUGGCGUAUUACAUGAGGAUCACCCAUGUAGGAUAUCGAUUGCUUUGCAGUCGAGAAGGACAUGUUCUUG [JL ENG3 3.80 Mod B] (Eterna round: R96, puzzle: Exclusion NG 3) |  |  |  |  |  | 39.4 nM |
| CAAUUCAGAGGAUAUGCGCAUAGAUAAGACUUUUUUUCUUAACAUGAGGAUCACCCAUGUAGAAGGCUGUAAAC [Ex2 #62] (Eterna round: R97, puzzle: Exclusion 2) | 16.5 nM | 16.8 nM |  |  |  |  |
| UGAGACUGAGGAUAUACUUGCCCAUAAAGUGGGUAGUGGGUACAUGAGGAUCACCCAUGUAGAAGGCAGCCUCG [Omei Repeat Sequence v3] (Eterna round: R97, puzzle: Exclusion 2) | 597 nM | 46.3 nM |  |  |  |  |
| GUUAUACAUGAGGAUCACCCAUGUCAGGAUAUUAUCUAUCUUUGGAAGCAUUGAUCGCUAAGAAGGGACUAGUA [Bubbles2] (Eterna round: R97, puzzle: Exclusion 1) | 28 nM | 33 nM |  |  |  |  |
| UUUUGUCAGGUAUUUAUUAACAUGAGGAUCACCCAUGUGCAUCCAAAAUUACUUUUAGAUCAAGCUCGUCUUAUAUA [JR_STOV1_Sub089] (Eterna round: R97, puzzle: Sensor, turn-off variant 1) | 94.3 nM | 102 nM |  |  |  |  |
| CUAGAUCUUCGGAUCUAGUACAUGAGGAUCACCCAUGUUACGAGUUGAUUUUCAUACAAGCUUUUUGCUCGUCUUAU [Sensor v3 - Turn-off variant 1 - 28] (puzzle: Sensor v3, turn-off variant 1) |  |  | 134 nM | 84.4 nM | 153 nM |  |
